T1: chymase (recombinant, manufactured by SIGMA) (Homo sapiens, UniProt P23946)
T1 construct: purchased SIGMA; host or cells: yeast
T1 sequence (P23946 22-247): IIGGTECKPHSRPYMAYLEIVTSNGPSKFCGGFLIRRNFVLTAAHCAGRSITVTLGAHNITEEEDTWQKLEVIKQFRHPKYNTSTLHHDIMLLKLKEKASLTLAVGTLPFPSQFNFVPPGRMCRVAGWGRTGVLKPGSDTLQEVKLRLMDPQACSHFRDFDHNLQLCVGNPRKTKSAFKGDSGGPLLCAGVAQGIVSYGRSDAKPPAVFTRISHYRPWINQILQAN

T2: native chymase (purified from human skin mast cell) (Homo sapiens, UniProt P23946)
T2 construct: the native is chymase purified from human skin mast cell; purchased Calbiochem; host or cells: human skin mast cell
T2 sequence (P23946 22-247): T1 sequence (P23946 22-247)

T3: recombinant chymase (expressed by yeast) (Homo sapiens, UniProt P23946)
T3 construct: purchased SIGMA; host or cells: yeast
T3 sequence (P23946 22-247): T1 sequence (P23946 22-247)

T4: chymase (Homo sapiens, UniProt P23946)
T4 sequence (P23946 22-247): T1 sequence (P23946 22-247)

T5: chymase (recombinant) (UniProt P23946 P23946:22-247)
T5 sequence: T1 sequence (P23946 22-247)

B1: 45 (nucleic acid)
chain: GGGAGCAGGAGAGAGGUCAGAUGGACCACCGAUGGGCAAGAUAGAGUUAAAUGCCUAUGCGUGCUAGUGUGA
modifications: aptamer; 2'-fluoro at CU, RNA at AG, backbone not given here
B2: 56(16) (ssRNA)
RNA: GGGUUAGAUAGAGUUAAAAACCC
modifications: 2'-F pyrimidines except U15 2'-OH
B3: 46 (nucleic acid)
chain: GGGAGCAGGAGAGAGGUCAGAUGGGACAGAUAGAGUUAAAGUCCGUUACGUGGCCUAUGCGUGCUAGUGUGA
modifications: aptamer; 2'-fluoro at CU, RNA at AG, backbone not given here
B4: 47 (nucleic acid)
chain: GGGAGCAGGAGAGAGGUCAGAUGGUGAUAGAUAGAGUUAAAAUCGCUGAAUGGCCUAUGCGUGCUAGUGUGA
modifications: aptamer; 2'-fluoro at CU, RNA at AG, backbone not given here
B5: 39 (nucleic acid)
chain: GGGAGCAGGAGAGAGGUCAGAUGGUUACGGAUAGAGUUAAGGUAACGGUACGGCCUAUGCGUGCUAGUGUGA
modifications: aptamer; 2'-fluoro at CU, RNA at AG, backbone not given here
B6: 56(15) (ssRNA)
RNA: GGGUUAGAUAGAGUUAAAAACCC
modifications: 2'-F pyrimidines except U9 2'-OH
B7: 44 (nucleic acid)
chain: GGGAGCAGGAGAGAGGUCAGAUGUUAGACCAAAGCAUAGGAGAUAGAGUUAAACCUAUGCGUGCUAGUGUGA
modifications: aptamer; 2'-fluoro at CU, RNA at AG, backbone not given here
B8: 42 (nucleic acid)
chain: GGGAGCAGGAGAGAGGUCAGAUGCGUGAUCGUGCAAGGCGGAUAGAGUUAAGGCCUAUGCGUGCUAGUGUGA
modifications: aptamer; 2'-fluoro at CU, RNA at AG, backbone not given here
B9: 43 (nucleic acid)
chain: GGGAGCAGGAGAGAGGUCAGAUGAUGCCAAGAUAGAUUUAAAUGGCGUUUGGGCCUAUGCGUGCUAGUGUGA
modifications: aptamer; 2'-fluoro at CU, RNA at AG, backbone not given here
B10: 48 (nucleic acid)
chain: GGGAGCAGGAGAGAGGUCAGAUGUGAAGAUAGAGAUAAAUCACAUACAGUCGGCCUAUGCGUGCUAGUGUGA
modifications: aptamer; 2'-fluoro at CU, RNA at AG, backbone not given here
B11: 56(12) (ssRNA)
RNA: GGGUUAGAUAGAGUUAAAAACCC
modifications: 2'-F pyrimidines; 2'-OMe G13
B12: 38 (nucleic acid)
chain: GGGAGCAGGAGAGAGGUCAGAUGGAUAGAGUUAAGAUCUGGCUGGCGCAUUAGCCUAUGCGUGCUAGUGUGA
modifications: aptamer; 2'-fluoro at CU, RNA at AG, backbone not given here

Legend:
[1] = target: T1, chymase (recombinant, manufactured by SIGMA); assay: Chymase inhibitory activity using synthetic substrate Suc-Ala-Ala-Pro-Phe-MCA; assay type: biochemical
Method in brief: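 Human recombinant chymase (16.7 nM or 1.67 nM final) preincubated 5 min at 37° C., then added to nucleic acid (0.0027–2 μM serial dilutions) and 100 μM substrate in solution C. AMC fluorescence (ex 380/em 460 nm) followed 5 or 30 min at 37° C.; slope gives initial velocity, inhibition versus no-inhibitor control yields IC50.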

[2] = target: T2, native chymase (purified from human skin mast cell); assay: Chymase inhibitory activity using angiotensin I as substrate, native chymase; assay type: biochemical; details: final 50 μM, chymase 0.2-0.5 nM, 37° C. 90 min, one measurement
Method: (§1) A second method of evaluation employs a native substrate. A useful native substrate for chymase is angiotensin I. Here, His-Leu, a peptide fragment released upon degradation of angiotensin I, is fluorescently derivatized, and the fluorescence intensity therefrom is quantified.
(§2) In the assay, an enzyme reaction is carried out in 50 μL of solution C. First, 0.3-0.75 ng of chymase (recombinant, manufactured by SIGMA; or native, manufactured by Calbiochem) is diluted in solution C to obtain 5 μL chymase solution. Each nucleic acid is prepared in solution C to obtain 25 μL solutions. 5 μL of each chymase dilution and 25 μL of each nucleic acid solution are mixed, and then the mixture is incubated at 37° C. for 5 minutes. […] The angiotensin I solution is added to the mixture of chymase and nucleic acid, and the enzyme reaction is initiated. After the reaction was allowed to proceed at 37° C. for 90 minutes, 25 μL of ice-cooled 30% trichloroacetic acid solution is added to terminate the reaction. The entire mixture is centrifuged at 4° C., 14000 rpm for 10 minutes, and 30 μL of the resulting supernatant is used for the subsequent reaction for fluorescent derivatization.
(§3) After 30 μL of the supernatant is added to a 96-well plate (Black, manufactured by Costar), 15 μL of 2% o-phthalaldehyde (manufactured by SIGMA) solution in methanol and 170 μL of 0.3M NaOH solution are mixed in each well, and the plate is allowed to stand at room temperature for 10 minutes. Subsequently, 25 μL of 3M HCl solution is added to terminate the reaction. The plate is set to the microplate reader SpectraMax190 (manufactured by Molecular Devices Corporation), and the fluorescence intensity is determined at an excitation wavelength of 355 nm and a fluorescence wavelength of 460 nm.
(§4) For control, samples are treated and analyzed in the same manner in two cases: use of SEQ ID NO: 58 (negative control) and use of chymostatin, a known chymotrypsin-like serine protease inhibitor (positive control). In both cases, fluorescence intensity obtained at 0 minute reaction time serves as a blank determination. Taking the fluorescence intensity detected with the addition of an equal volume of solution C, in place of each nucleic acid, in the chymase enzyme reaction as 100%, the inhibitory rate for each test substance is calculated, and the inhibitor concentration required to cause a 50% inhibition of the enzyme activity (IC50) is determined.
(§5) For further assessment of the inhibitory activity of the nucleic acid of the present invention, the enzyme activity of chymase was measured using angiotensin I, which is a native substrate for chymase, according to the following method. Angiotensin I is converted by chymase to angiotensin II, during which a peptide fragment His-Leu is released. Since the peptide His-Leu is fluorescently derivatized by o-phthalaldehyde, its fluorescence intensity can be quantitatively measured.
(§6) The total volume of solution for an enzyme reaction in the assay was set to 50 μL, and the reaction was performed in solution C buffer. First, 0.3-0.75 ng of chymase (recombinant, (manufactured by SIGMA) or native (manufactured by Calbiochem)) was diluted with solution C to give 5 μL thereof. Here, the recombinant is chymase expressed by yeast, and the native is chymase purified from human skin mast cell. The nucleic acid was serially diluted with solution C at a concentration of 0.0027-2 μM to give 25 μL thereof. The chymase solution (5 μL) and the nucleic acid solution (25 μL) were mixed, and the mixture was incubated at 37° C. for 5 min. On the other hand, […] angiotensin I (manufactured by PEPTIDE INSTITUTE, INC.) was prepared in solution C to give […] thereof, which was incubated at 37° C. for 5 min. The angiotensin I solution was added to a mixture of chymase and nucleic acid to start an enzyme reaction. The final chymase concentration of the reaction solution was 0.2-0.5 nM, and the final substrate concentration was 50 μM. […]

[3] = target: T3, recombinant chymase (expressed by yeast); assay: Chymase inhibitory activity using angiotensin I as substrate, recombinant chymase; assay type: biochemical; details: final 50 μM, chymase 0.2-0.5 nM, 37° C. 90 min, one measurement
Method: as §1, §2, §3, §4, §5, §6

[4] = target: T4, chymase; assay: Surface plasmon resonance (Biacore T100), aptamer immobilized on SA chip, chymase injected as analyte; assay type: binding; set-up: key: ++: a sequence that binds to chymase significantly more strongly than the negative control 30N; details: Table 2; same manner as Example 1, running buffer solution C; compared with 30N
Method: Binding strength is measured using Biacore T100 (manufactured by GE Healthcare). In a method of measurement, the aptamer is first immobilized onto a sensor chip, the amount immobilized being about 1000 RU. 20 μL of a chymase solution for analyte, prepared at 0.2 μM, is injected, and the binding of chymase to the aptamer is detected. An RNA comprising a random nucleotide sequence of 30 or 40 nucleotides is used as a negative control.
The binding activities against chymase of the nucleic acids shown by SEQ ID NO: 4-20 and 22-34 were determined by the surface plasmon resonance method using Biacore T100 (manufactured by GE Healthcare). The sensor chip used was the SA chip, which had streptavidin immobilized thereon. Bound thereto was about 1500 RU of a 16-nucleotide Poly dT with biotin bound to the 5′ end thereof. […] 20 μL of chymase for analyte, prepared at 0.2 μM, was injected. Solution A was used as a running buffer.
The binding activities against chymase of the nucleic acids shown by SEQ ID NO: 38-48 were evaluated by the surface plasmon resonance method. In the evaluations for SEQ ID NO: 38-48, measurements were taken in the same manner as Example 1. Solution C was used as a running buffer.

[5] = target: T5, chymase (recombinant); assay: inhibition; SPR ++; details: tags: SIGMA, expressed in yeast
Method: Here, Suc is a protecting succinyl group, and MCA is a 4-methylcoumaryl-7-amide group; upon cleavage of the C-terminal side of phenylalanine, AMC (7-amino-4-methyl-coumarine) is released. By detecting the fluorescence of this AMC, the enzyme activity of chymase can be determined. The assay was performed using a 96-well plate (F16 Black Maxisorp Fluoronunc, manufactured by Nunc), with a reaction mixture volume of 100 μL, in solution C as a buffer solution. First, each nucleic acid was serially diluted to 0.0027-2 μM concentrations in solution C to obtain 50 μL solutions. After 10 μL of the 1 mM substrate prepared in solution C was added thereto, the plate was set to the microplate reader SpectraMax190 (manufactured by Molecular Devices Corporation), and incubated at 37° C. for 5 minutes. Separately, 0.05 μg (or 0.005 μg) of chymase (recombinant, manufactured by SIGMA) was diluted in solution C to obtain a 40 μL chymase solution, and incubated at 37° C. for 5 minutes. The chymase solution was added to the mixture of the nucleic acid and substrate to initiate an enzyme reaction. The final chymase concentration in the reaction mixture was 16.7 nM (or 1.67 nM), the final substrate concentration being 100 μM. The plate containing the reaction mixture was set to the microplate reader SpectraMax190 (manufactured by Molecular Devices Corporation), and examined for time-dependent changes in the fluorescence intensity at 37° C. for 5 minutes (or 30 minutes) (excitation wavelength 380 nm, detection wavelength 460 nm). A linear approximation of the increase in the fluorescence of the AMC released from the substrate by chymase activity was generated, and its slope was taken as the initial velocity […]. For control, samples were treated and analyzed in the same manner in two cases: use of a 30N or 40N (a nucleotide of 30 or 40 consecutive bases represented by N; N is A, G, C or T) nucleic acid pool (negative control), and use of chymostatin, a known chymotrypsin-like serine protease inhibitor (positive control). Taking the initial reaction velocity without the nucleic acid and inhibitor (V_0) as a 100% enzyme activity, the inhibitory rate of each test substance was calculated using the following equation: […]
The inhibitory activity on chymase was measured in the same manner as in Example 3.

[6] = Table 3, substrate 100 μM, solution C, 37° C., mean value for 2 to 3 measurements

Molecule	IC50 [1, 6] [nM]	Binding activity as determined using Biacore [4]	further results
69 (AAAGGGUUAGAUAGAGUUAAAAACCC; listed as RNA, chemistry not given here) [compound 69]	–	–	IC50 ([1]; Table 7, same manner as Example 3, mean value of two measurements): 91 ± 19 nM; IC50 [2]: > 1000 nM; IC50 [3]: 628 nM
B1	74 ± 11	++	–
B2	–	–	IC50 [5]: 58 nM
B3	38 ± 4	++	–
B4	58 ± 12	++	–
B5	–	++	–
B6	–	–	IC50 [5]: 61 nM
B7	49 ± 13	++	–
B8	124 ± 26	++	–
B9	81 ± 50	++	–
B10	95 ± 18	++	–
B11	–	–	IC50 [5]: 35 nM
B12	50 ± 12	++	–
